Measurements taken from article PMC10786891, “Massively parallel profiling of RNA-targeting CRISPR-Cas13d”.
Where a chain is given by its changes, count along the chain named. Numbers in names are those of the source.

T1: EsCas13d, nuclease-dead (Eubacterium siraeum, UniProt B0MS50, R295A;H300A;R849A;H854A)
T1 sequence: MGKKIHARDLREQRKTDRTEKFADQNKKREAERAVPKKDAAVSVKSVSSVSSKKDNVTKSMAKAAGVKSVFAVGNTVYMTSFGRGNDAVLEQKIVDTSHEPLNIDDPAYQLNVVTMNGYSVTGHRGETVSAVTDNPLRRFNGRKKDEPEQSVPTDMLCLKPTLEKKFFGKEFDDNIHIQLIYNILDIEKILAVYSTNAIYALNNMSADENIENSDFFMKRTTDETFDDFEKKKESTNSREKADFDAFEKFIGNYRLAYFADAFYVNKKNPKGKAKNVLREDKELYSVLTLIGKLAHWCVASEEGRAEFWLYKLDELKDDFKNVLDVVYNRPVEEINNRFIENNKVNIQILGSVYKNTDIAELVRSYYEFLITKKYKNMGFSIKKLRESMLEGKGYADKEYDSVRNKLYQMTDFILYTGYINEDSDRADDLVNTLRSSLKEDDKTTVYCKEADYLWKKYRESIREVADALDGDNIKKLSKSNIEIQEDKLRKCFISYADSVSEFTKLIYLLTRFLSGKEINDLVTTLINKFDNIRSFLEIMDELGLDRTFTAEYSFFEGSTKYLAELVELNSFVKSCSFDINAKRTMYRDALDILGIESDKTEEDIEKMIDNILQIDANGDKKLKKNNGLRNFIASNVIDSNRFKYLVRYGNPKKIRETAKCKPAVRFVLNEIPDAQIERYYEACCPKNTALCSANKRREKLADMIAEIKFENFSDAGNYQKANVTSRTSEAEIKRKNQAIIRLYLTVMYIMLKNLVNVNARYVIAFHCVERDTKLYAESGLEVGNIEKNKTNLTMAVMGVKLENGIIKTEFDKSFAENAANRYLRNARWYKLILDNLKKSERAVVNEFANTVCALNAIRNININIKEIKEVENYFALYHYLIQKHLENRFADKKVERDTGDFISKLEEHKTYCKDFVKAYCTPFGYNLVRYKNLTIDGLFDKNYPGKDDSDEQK

T2: RfxCas13d (CasRx), nuclease-dead (Ruminococcus flavefaciens, R239A;H244A;R858A;H863A)
T2 chain: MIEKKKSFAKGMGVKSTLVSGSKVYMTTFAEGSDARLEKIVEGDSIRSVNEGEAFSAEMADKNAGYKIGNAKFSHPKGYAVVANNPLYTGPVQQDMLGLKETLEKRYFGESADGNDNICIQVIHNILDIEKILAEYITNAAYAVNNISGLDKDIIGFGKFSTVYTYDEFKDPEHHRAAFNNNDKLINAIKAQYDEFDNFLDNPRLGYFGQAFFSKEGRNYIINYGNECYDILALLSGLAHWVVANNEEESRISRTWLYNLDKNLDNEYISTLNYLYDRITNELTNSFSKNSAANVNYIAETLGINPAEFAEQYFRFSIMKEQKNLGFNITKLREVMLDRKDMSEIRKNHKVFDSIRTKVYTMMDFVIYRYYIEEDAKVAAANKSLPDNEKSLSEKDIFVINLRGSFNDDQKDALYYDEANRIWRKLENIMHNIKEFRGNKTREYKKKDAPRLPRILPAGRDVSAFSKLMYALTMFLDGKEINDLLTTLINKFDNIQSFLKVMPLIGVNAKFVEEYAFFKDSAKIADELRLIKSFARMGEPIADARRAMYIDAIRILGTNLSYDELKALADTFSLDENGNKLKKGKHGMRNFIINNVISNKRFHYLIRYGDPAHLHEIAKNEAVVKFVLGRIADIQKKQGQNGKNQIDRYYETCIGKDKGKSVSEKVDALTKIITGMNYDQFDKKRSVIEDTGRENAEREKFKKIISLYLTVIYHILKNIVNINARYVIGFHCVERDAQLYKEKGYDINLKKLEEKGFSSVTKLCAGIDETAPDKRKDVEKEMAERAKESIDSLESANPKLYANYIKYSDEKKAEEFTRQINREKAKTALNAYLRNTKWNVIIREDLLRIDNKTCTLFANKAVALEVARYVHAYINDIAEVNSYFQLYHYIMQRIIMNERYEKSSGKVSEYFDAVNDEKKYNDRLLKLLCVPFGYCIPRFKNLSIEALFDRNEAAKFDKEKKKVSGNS

B1: target 1 MT (60-mer) (mixed)
RNA 1: CACCCGUGCAAAAAUGCAGGGGUCUAAAACUGAGCGGAUAACCUCUCUAUGG
RNA 2: CCACAUCUACGAAUUCGUACCAUAGAGAGGUUAUCCGCUCACCGAGAUCGGAAGAGCACA
B2: target 1 G15A (60-mer) (mixed)
RNA 1: B1 RNA 1
RNA 2: B1 RNA 2 with G27A
B3: target 1 MT 5'PFS GGA 3'PFS AGA (mixed)
RNA 1: B1 RNA 1
RNA 2: GGGAAUGGAUCCACAUCUACGAAUUCGGACCAUAGAGAGGUUAUCCGCUCAAGAAGAUCGGAAGAGCACACGU
B4: target 1 C7A (60-mer) (mixed)
RNA 1: B1 RNA 1
RNA 2: B1 RNA 2 with C35A
B5: target 1 C4A (60-mer) (mixed)
RNA 1: AACCCCUACCAACUGGUCGGGGUUUGAAACUGAGCGGAUAACCUCUCUAUGG
RNA 2: B1 RNA 2 with C38A
B6: target 1 U10G (60-mer) (mixed)
RNA 1: B1 RNA 1
RNA 2: B1 RNA 2 with U32G
B7: target 1 C22A (60-mer) (mixed)
RNA 1: B1 RNA 1
RNA 2: B1 RNA 2 with C20A
B8: target 1 3'-GGU (60-mer) (mixed)
RNA 1: B1 RNA 1
RNA 2: B1 RNA 2 with C42G, C43G, G44U
B9: target 1 3'-GUU (60-mer) (mixed)
RNA 1: B1 RNA 1
RNA 2: B1 RNA 2 with C42G, C43U, G44U
B10: target 1 A18G (60-mer) (mixed)
RNA 1: B1 RNA 1
RNA 2: B1 RNA 2 with A24G
B11: target 1 C2G (60-mer) (mixed)
RNA 1: B5 RNA 1
RNA 2: B1 RNA 2 with C40G
B12: target 1 MT 5'PFS GCU 3'PFS UAG (mixed)
RNA 1: B1 RNA 1
RNA 2: B3 RNA 2 with G28C, A29U, A52U, G53A, A54G
B13: target 1 5'-UAA (60-mer) (mixed)
RNA 1: B1 RNA 1
RNA 2: B1 RNA 2 with G17U, U18A
B14: target 1 MT (60-mer) (mixed)
RNA 1: B5 RNA 1
RNA 2: B1 RNA 2
B15: target 1 G5U (60-mer) (mixed)
RNA 1: B1 RNA 1
RNA 2: B1 RNA 2 with G37U
B16: target 1 C2G (60-mer) (mixed)
RNA 1: B1 RNA 1
RNA 2: B1 RNA 2 with C40G
B17: target 1 A20C (60-mer) (mixed)
RNA 1: B1 RNA 1
RNA 2: B1 RNA 2 with A22C
B18: target 1 3'-UGG (60-mer) (mixed)
RNA 1: B1 RNA 1
RNA 2: B1 RNA 2 with C42U, C43G
B19: target 1 3'-GCU (60-mer) (mixed)
RNA 1: B1 RNA 1
RNA 2: B1 RNA 2 with C42G, G44U
B20: target 1 3'-UAA (60-mer) (mixed)
RNA 1: B1 RNA 1
RNA 2: B1 RNA 2 with C42U, C43A, G44A
B21: target 1 C4A (60-mer) (mixed)
RNA 1: B1 RNA 1
RNA 2: B1 RNA 2 with C38A
B22: target 1 MT 5'PFS GCU 3'PFS UAA (mixed)
RNA 1: B1 RNA 1
RNA 2: B3 RNA 2 with G28C, A29U, A52U, G53A
B23: crRNA-1 (MT) target (mixed)
RNA 1: CACCCGUGCAAAAUUGCAGGGGUCUAAAACUUUUGGUUGACCACAUCUUGAA
RNA 2: UUGGAAAACUUCAAGAUGUGGUCAACCAAAAUGCACAAGC
B24: crRNA-2 (MT) target (mixed)
RNA 1: CACCCGUGCAAAAUUGCAGGGGUCUAAAACCUUGAAGUUUUCCAAGUGCACU
RNA 2: UCCACAGCAAGUGCACUUGGAAAACUUCAAGAUGUGGUCA

Tests used:
EsCas13d, nuclease-dead [1] = molecular target: T1, EsCas13d, nuclease-dead; test: BLI; crRNA (strand 1, pre-loaded); Mg2+; 40 mM Tris-HCl pH 7.5, 150 mM NaCl, 6 mM MgCl2, 1 mM DTT, 0.1% Tween-20, 0.2 mg/ml BSA; temperature not stated; details: tags: His6-TwinStrep-SUMO cleaved; label: 3' biotin on strand 2
EsCas13d, nuclease-dead [2] = molecular target: T1, EsCas13d, nuclease-dead; test: as above; details: tags: His6-TwinStrep-SUMO cleaved; label: 3' biotin on strand 2; remark: listed apart in the source
EsCas13d, nuclease-dead [3] = molecular target: T1, EsCas13d, nuclease-dead; test: crRNA (strand 1, pre-loaded); Mg2+; 40 mM Tris-HCl pH 7.5, 150 mM NaCl, 6 mM MgCl2, 1 mM DTT, 0.1% Tween-20, 0.2 mg/ml BSA; 25 C; 10 min per concentration, then washed; details: tags: His6-TwinStrep-SUMO cleaved; N-terminal SNAP kept (SNAP-Surface 488); label: 3' end held by stalled T7 RNA polymerase
[4] = molecular target: T2, RfxCas13d (CasRx), nuclease-dead; test: BLI; crRNA (strand 1, pre-loaded); Mg2+; 40 mM Tris-HCl pH 7.5, 150 mM NaCl, 6 mM MgCl2, 1 mM DTT, 0.1% Tween-20, 0.2 mg/ml BSA; temperature not stated; details: tags: His6-TwinStrep-SUMO cleaved; label: 3' biotin on strand 2

Row | Binder | koff (EsCas13d, nuclease-dead [1]) [s⁻¹] | kon (EsCas13d, nuclease-dead [1]) [M⁻¹ s⁻¹] | Kd (EsCas13d, nuclease-dead [2]) [nM] | Kd (EsCas13d, nuclease-dead [3]) [nM] | Kd [4] [nM]
1 | B1 | 0.00052 | 170000 |  |  | 
2 | B2 | 0.0006 | 180000 | 3.4 |  | 
3 | B3 |  |  |  | 20.5 ± 2.75 | 
4 | B4 | 0.00045 | 220000 | 2.1 |  | 
5 | B5 |  |  |  |  | ~0.132
6 | B6 | 0.00051 | 130000 | 3.8 |  | 
7 | B7 | 0.00066 | 190000 | 3.6 |  | 
8 | B8 | 0.00084 | 120000 | 7.1 |  | 
9 | B9 | 0.0011 | 250000 | 4.4 |  | 
10 | B10 | 0.00063 | 73000 | 8.7 |  | 
11 | B11 |  |  |  |  | ~0.109
12 | B12 |  |  |  | ~95 | 
13 | B13 | 0.00061 | 100000 | 6 |  | 
14 | B14 |  |  |  |  | ~0.104
15 | B15 | 0.00042 | 45000 | 9.3 |  | 
16 | B16 | 0.0004 | 200000 | 2 |  | 
17 | B17 | 0.00063 | 100000 | 6.3 |  | 
18 | B18 | 0.0006 | 70000 | 8.6 |  | 
19 | B19 |  |  | 4.2 |  | 
20 | B20 | 0.00061 | 100000 | 6 |  | 
21 | B21 | 0.00035 | 220000 | 1.6 |  | 
22 | B22 |  |  |  | 49.5 ± 11 | 
23 | B23 | 0.00038 | 96000 | 4 |  | 
24 | B24 |  |  | 3 |  | 
